# Assay results published in the nanobody polyreactivity screen of Harvey et al. (2022).
# Assay: yeast display, Sf9 membrane polyspecificity reagent, FACS + sequencing; frameworks hold sequencing errors
# Outline: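 Synthetic nanobody libraries on Saccharomyces cerevisiae BJ5465 were galactose-induced for 36–48 hours, stained 1 hour at 4 °C with 10% biotinylated, detergent-solubilized Sf9 membrane reagent and enriched on streptavidin microbeads. FACS then separated cells into low and high (top ~1%) gates by anti-HA (expression) and streptavidin (reagent binding) fluorescence. Genes were colony-PCR amplified, MiSeq 2 × 250 sequenced and CDR-length filtered. A clone's polyreactivity label is that of its gate of origin.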
row,Sequence,polyreactivity (PSR sort gate)
1,QVQLVESGGGLVQAGGSLRLSCAASGRTFQYNAMGWYRQAPGKERELVAAISWSGGSTYYADSVKGRFTISRDNAKNTVYLQMNSLKPEDTAVYYCNARTLFKWRHGHYYAYDYWGQGTQVTVSS,high polyreactivity
2,QVQLVESGGGLVQAGGSLRLSCAASGSIFPSYAMGWYRQAPGKERELVAVINSGGSTYYADSVKGRFTISRDNAKNTVYFQMNSLKPEDTAVYYCAAYRRRYPRFDYWGQGTQVTVSS,high polyreactivity
3,QVQLVESGGGLVQAGGSLRLSCAASGFTFKRNGMGWYRQAPGKERELVAAISSSGGNTYYADSVKGRFTISRDNAKNTVYLQMNSLKPEDTAVYDCAAASRYFDRDYWGQGTQVTVSS,high polyreactivity
4,QVQLVESVRGLVQAGGTLRLSCAPSGGIFWVYAMGWYRQAPGKERELVAAISNSDTSTSYADSVKGRFTISRVNAKNTVYLQMNSLKPEDTAVYSCNADSPSLSGDYWGQGTQVTVSS,low polyreactivity
5,QVQLVESGGGLVQAGGSLRLSCAASGRIIWKNTMGWYRQAPGKERELVAAITYGGSTNYADSVKGRFTISRDNAKNTVYLQMNSLKPEDTAVYYCNAQISWDSGWGYSYHLDYWGQGTQVTVSS,low polyreactivity
6,QVQLVESGGGLVQAGGSLRLTCDASGGIFAVNVMGWYRQAPWKERELVAAITSTGSTYYADSVKGRFTISRDNAKNTVYLQMNSLTPEDTAVYYCAADYVYYDSYDDTVFGYDYWGQGTQVTVSS,high polyreactivity
7,QVQLVESGGGLVQAGGSLRLSCAASGRIVNYYAMGWYRQAPGKERELVAAINSGGSTDYADSVKGRFTISRDNAKNTVYLQMNSLKPEDTAVYYCNAEKTYLYTDIPGYARFGYWGQGTQVTVSS,high polyreactivity
8,QVQLVESGGGLVQAGGSLRLSYAASGRTFYRYAMGWYRQAPGKERELVAVITSGSRTKYADSVKGRFTISRDNAKNTVYLQMNSLKPEDTAFYYCAARGLALEGKSSGEYWGQGTQVTVSS,high polyreactivity
9,QVQLVESGGGLVQAGGSLRLSCAASGRTFPYNVMGWYRQAPRKERELVARITRGGSTDYADSVKGRFTISRDNAKNTVYLLMNSLKPEDTAVYYCAAAIGHFERFYWGQGTQVTVSS,low polyreactivity
10,HVQLVESGGGFVQAGGSLRLSCAASGITFVKYTMGWYRQAPGKERELVAASSRSDGRTYYADSVKGRFTISRDNAKNSVYLQMNSLKPEDTAVYYCNAVYGVIGKGYNYWGQGTQVTVSS,high polyreactivity
11,LVQLVESGGGLVQAGGSLRLSCAASGSICNANAMGWYRQAPGKERELVAGIRSGSSTNYADSVKGRVTISRDNAKNTVYLQMNSLKPEDTPVYYCATEGYWVYGFDDEYWGQGTQVTVSS,low polyreactivity
12,QVQLVESVGGLVQAGGSLRLSCAASGFTFANYAMGWYRQAPGKERELVAAITWSGGRTYYADSVKGRFTISRDNAKNTVYLQMNSLKQEYTAVYYCAAGLGTLYGYWGQGTQVTVSS,high polyreactivity
13,QVQIVESGGGLVQAGGSLRLSCAASGGIFEINVLGWYRQAPGKERELVAAISSRGGSTYYADSVKGRFTISRDNAKNTVYLQMNSLKPEDTAVYYCARRYRPKYGYWGQGTQVTVSS,high polyreactivity
14,QVQLVESGGGLVQAGGSLRLICAPSGSIFTYYAMGRYRQAPGKEKELVAAISQSGGTTYYADSVKGRFTISRDNAKNTVYLQMNSLKPEDTAVSYCAARAPSSFDTQYYYWGQGTQVTVSS,low polyreactivity
15,QVQLVESGGCLVQAGGSLRLSCAASGFTFRYYAMGWYRQAPGKEREFVAAIRSSGTTTSYADSVKGRFRISRDYAKNTVYLQMNSLKPEDTAVYFCAAGYFGPQQYYYWCQGTQVTVSS,high polyreactivity
16,QVQLVESGGGLVQAGGSLRLSCAASGFIFVKYAMGWYIQAPGKERELVAAITTSGTGTFYADSVKGRFTISRDNAKYTVYLQMNRLKPEDTAVYYCNALGHPGDDWGQGTQVTVSS,low polyreactivity
17,QVQLVESGGGLVHAGGSLRLSCAASRRNFTRNAMGWYRQAPGKERELVAAIRRGGRTNYADSVKGRFTISRDNAKNTVYLQMNSLKPEETAVYYCNKAGWLKWAPRQYYYWGQGTQVTVSS,high polyreactivity
18,LVQLQESGGGLVQAGGSLRLSCAASGTISPGGYMGWYRQAPGQERELVASINVGGSTNYADSVKGRFTISRDNAKNPVDLQMNSLKPEDNAVYYCAVWGRNRLQLSYWGQGTQVTVSS,low polyreactivity
19,QVQLVESGGGLVQAGGSLRLSCAASGITFYFNTMGWYRQAPGKERELVASIRNTGSTYADSVKGRFTISRDNAKNTVYLQMNSLKPEDTAVYYCAARRRKYYRGEYGYWGQGTQVTVSS,high polyreactivity
20,QVQLVESGGVLVQAGGSLRLSCAASGSTFEYNVMGWYRPAPGKERELVAAITTGASTNYADSVKGRFTISRDNAKNTVYLQMNCLKPEDTAVYYCAARYWRVRHGSVPAYSGYDYWGLGTQVTVSS,low polyreactivity

row,Sequence,polyreactivity (PSR sort gate)
1,QVQLVESGGGLVQAGGSLRLSCGASGSTFNWYTMGWYRQAPGKERELVDAISMNGGRTYYADSVKWRFTISRDKAKNTVYLQMNSLKPEDTAVYYCAAQISFYFAQYNLARFRGYYWGQGTQVTVSS,high polyreactivity
2,QDQLVESGGGLVQAGGSLRLSCAASGFIFSWYAMGWYRQPPGKERELVAGISIRGGRTYADSVKGRFTISRDNAKNTVYLQMNSLKPDDTAVYYCATRSYRPYHSLYDYWGQGTQVTVSS,high polyreactivity
3,QVQLVESWGGLVQAGGSLRLSCAASGLTFNYYDMGWYRQAPGKERELVAAISRSGTNTSYADSVKGRFTISRDNAKNTVYLQMNSLKPEDTAVYYCNAAGVYLAAGPYTANFNYNYWGQGTQVTVSS,low polyreactivity
4,QVQLQESGGGLVQAGGSLRLSCAASGYISFSGYIGRYRQAPGKEREFVDSITPGRSTYYADSVKGRFTISRDNAENTVYLQMNSLKPEDTAVYYCAADDSRTEQHAYWGQGTQVTVSS,high polyreactivity
5,QVQLVESGGGLVQAGGSLRLSCAASGSTFYYNAMGWYRQAPGKERELVAGITSSGGSTYYADSVKGRFTISRDNAKNTVYLQMNSLKPEDTAVYYCAASYKRSRRGYYWGQGTQVTVSS,high polyreactivity
6,QVQLVESGGGLVQAGGSRRLSCAASGSIFVSNAMGWDRQAPGKERELVAAISGGCSTYYADSVKGRFTISRDNAKNTVYLQMNSLKPEDTAVYYCNALFDGYAQDLDYDYWGQGTQVTVSS,low polyreactivity
7,QVQLVESGGGLVQAGGSLRLSCAASGRTINRYAMGWYRQAPGKERELVAVITSDGRTNYADSVKGRFTISRDNAKNTVYLQMNSLKPEDTAVYYCNKRSALSFVYDFDYWGQGTQVTVSS,low polyreactivity
8,QVQLVESGGRLVQAGGSLRLICAASGGIFGFNAMGWYRQAPGKERELVADISDGVRTNYADSVKWRFTISRDNAKNTVFLQMNSLKPEDTAVNYCATDGVYYVDGSWTLGYWGLGTQVTVSS,low polyreactivity
9,QVQLVESGGGLVQAGGSLRLSCAASGRTFKRKAKGWYRQAPGKEWEFVAVITGSGGSTYYADSVKGRFTISRDNAKNTVYLQMNSLKPEDTAVYYCAAALGLRSTSWGRRGGGGDYWGQGTQVTVSS,high polyreactivity
10,QVQLVESGGGLVQAGGSLRLSCAASGYIYRYNAMGWYRQAPGKEREFVASISQRGGSTYYADSVKGRFTISRDNAKNTVYLQMNSLKPEDTAVYYCAARLGYYSYEYNYWGQGTQVTVSS,high polyreactivity
11,QVQLVESGGGLVQAGGSLRLSSAASGFISPSYALGWYRPAPGTERELDAAIRSSDGSTYYADSVKGRFTISRDTAMNSVYLQMNSLKPEDTAVYYCAGGGSYYRDDYWGQGTQVTVSS,low polyreactivity
12,QVQLVESGGGLVQAGGSLRLSCAASGYTFRHYAMGWYRQAPGKERELVAAISRSGGRTYYADSVKGRFTISRDNAKNTVYLHMNSLKPEDTAVYYCAADRVFGSSYLSGFDYWGQGTQGTVSS,low polyreactivity
13,QVQLVESGGGLVQAGGSLRLSCAASGLIFDSYDMGGSRQAPGKERELVAAIRRNGGSTYYADSLKGRFTISRDNAKNTVYLQMNSLIPEDTEVYYCAVDNSGYSGVYWVKMDYWGQGTQVTVSS,low polyreactivity
14,QVQLVESGGGLVQAGGSLRLSCAASGITFYVNAMGWYRQAPGKERELVAAISRSGGSTYYADSVKGRFTISRDNAKNTVYLQMNSLKPEDTAVYYCNKEDYGLYPYYVSVGYDYWGQGTQVTVSS,low polyreactivity
15,QVQLVESGGGLVQAGGSLRLSCAASGSIFLSYAMGWYRQAPGKERELVAAISRRGVRTYYADSVKGRFTISRDNAKNTVYLQMNSLKPEDTAVYYCAKDAYFPPWTYGSIFGLYDYWGQGTQVTVSS,low polyreactivity
16,QVQLVDSGGGLVQAGGSLRLSCAASGFIFHRYAMGWYRQAPGKERELVAAISSSGGSTYYADSVKGRFTISRDNAKNTVYLQMNSLKPEDTAVYYCAAYYHDGYEFNYWGQGTQLTVSS,high polyreactivity
17,QVQLVESGGGLVQAGGSLRLSCAASGSIFYDYAMGWYRQAPGKERELVAAINSGDSTYYADSVKGRFTISRDNAKNTVYLQMNSLKPEDTAVYYCAATYFSPYIEYDYWGQGTQVTVSS,low polyreactivity
18,QVQLVESGGGLVQAGGSLRLSCAASGRIFDLNAMGWYRPAPGKERELVAAITNTGSTNYADSVKGRFTISRDNAKNTVYLQMNSLKPEDTAVYYCARTYWLRYYGYRDDEYDYWGQGTQVTVSS,low polyreactivity
19,QVQLVESGGGLVQAGRSLRLSCAASGSTFDQYDMGWYRQAPGKERELVAAISQSGDRTYYADSVKARFTISRDYAKTTVYLQMNSLQPDDTAVYYCADDGVSQDYYYRYDYWGQCTQVTVSS,low polyreactivity
20,QVQLVESGGGLVQAGGSLRLSCAASGRTFFPYAMGWYRQAPGKERELVAAITRGGSTNYADSVKGRFTISRDNAKNTVYLQINSLKPEDTAVSYCATVVRYSNARGDYWGQGTQVTVSS,low polyreactivity
